Molecular target: hFcRn/β2-microglobulin complex (human) (UniProt P55899)
Assay: BLI, His-tagged hFcRn/b2m on Ni-NTA, pH 5.6

- fold higher affinity than the IgG1 control: > 1000 fold
Substance: T-01 MB IgG1 I253V

Source: US20250276070A1
